This is an account of results in paper PMC9204165, “Delineating the Role of the msaABCR Operon in Staphylococcal Overflow Metabolism”.

Series [1] has as its target T1, MsaB-His (MsaBhis) (Staphylococcus aureus USA300 LAC) (UniProt Q2FH36).
T1 sequence: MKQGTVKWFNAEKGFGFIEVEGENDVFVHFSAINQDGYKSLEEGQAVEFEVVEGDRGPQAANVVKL
The experiment in a line: EMSA. In general terms: Mobility shift assays separate free from complexed probe on a gel.

Series [2] addresses T1, MsaB-His (MsaBhis) (Staphylococcus aureus USA300 LAC). The series is described as follows: competition.
In another series the target is T2, MsaB-His (MsaBhis) (Staphylococcus aureus USA300 LAC, UniProt Q2FH36 1-66).
T2 sequence: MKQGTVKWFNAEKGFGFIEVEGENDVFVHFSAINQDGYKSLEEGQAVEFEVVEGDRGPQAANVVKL
The series is described as follows: EMSA; 5 mM MgCl2, poly(dI-dC). Conditions: protein: recombinant; tags: C-terminal 6xHis; label: 5'-biotin.

Take “TCCACTAACATCATCCTAACTATTTCAACACGTTTATTTCATTATACACAACTTCTTAAACATTCAATAAATTTAGATTTATAAAATTGCTTTATAAAAAGTTTTATGTAAAATACACATTCTTTTATGGTATTATATTAATGGCTCAAGT (double strand) [PcidR promoter probe]”: the binding entry in series [1] is on record as “binds”.
Turning to “TCCACTAACATCATCCTAACTATTTCAACACGTTTATTTCATTATACACAACTTCTTAAACATTCAATAAATTTAGATTTATAAAATTGCTTTATAAAAAGTTTTATGTAAAATACACATTCTTTTATGGTATTATATTAATGGCTCAAGT (double strand) [PcidR promoter unlabeled competitor]”, the binding entry in series [2] is listed as “binds”.

B1: PcidABC-EMSA (dsDNA)
DNA 1: AGTGAAATTTAGAGAGCGTTTCCATAGAAAATAGTAATACAAACCATAAAAAAAGAGTAT
DNA 2: ATACTCTTTTTTTATGGTTTGTATTACTATTTTCTATGGAAACGCTCTCTAAATTTCACT
Turning to B1, the binding result in the series with MsaB-His (MsaBhis) is “no binding”.

B2: PalsSD-EMSA (dsDNA)
DNA 1: ATACTCTTTTTTTATGGTTTGTATTACTATTTTCTATGGAAACGCTCTCTAAATTTCACT
DNA 2: AGTGAAATTTAGAGAGCGTTTCCATAGAAAATAGTAATACAAACCATAAAAAAAGAGTAT
For B2, the binding result with MsaB-His (MsaBhis) is reported as “no binding”.
